# Measured values from patent US20250218531A1 (ABSCI, published 2025).
# Numbering of substitutions follows the chain as printed.
# B1: Multi-step trastuzumab HCDR3 variant ARDGGRSYYSFYY (SEQ ID NO: 538) (Fab, V domains shown)
# VH: EVQLVESGGGLVQPGGSLRLSCAASGFNIKDTYIHWVRQAPGKGLEWVARIYPTNGYTRYADSVKGRFTISADTSKNTAYLQMNSLRAEDTAVYYCARDGGRSYYSFYYWGQGTLVTVSS
# VL: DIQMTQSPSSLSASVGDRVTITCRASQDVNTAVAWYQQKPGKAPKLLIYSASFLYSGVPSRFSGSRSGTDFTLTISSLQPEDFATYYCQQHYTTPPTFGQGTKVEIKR
# B2: Multi-step trastuzumab HCDR3 variant ARDGGSSSYSYSY (SEQ ID NO: 535) (Fab, V domains shown)
# VH: B1 VH with R102S, Y104S, F107Y, Y108S
# VL: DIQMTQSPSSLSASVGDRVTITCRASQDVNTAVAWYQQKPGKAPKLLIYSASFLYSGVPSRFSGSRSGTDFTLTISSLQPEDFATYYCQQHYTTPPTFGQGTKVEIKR
# B3: Multi-step trastuzumab HCDR3 variant ARSGGSYSYSFDV (SEQ ID NO: 522) (Fab, V domains shown)
# VH: B1 VH with D99S, R102S, S103Y, Y104S, Y108D, Y109V
# VL: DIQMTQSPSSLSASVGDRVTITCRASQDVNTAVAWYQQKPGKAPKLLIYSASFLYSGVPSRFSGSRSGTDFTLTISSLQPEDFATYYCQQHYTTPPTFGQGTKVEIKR
# B4: Multi-step trastuzumab HCDR3 variant SRYGYSGYGAFDY (SEQ ID NO: 521) (Fab, V domains shown)
# VH: B1 VH with A97S, D99Y, G101Y, R102S, S103G, Y105G, S106A, Y108D
# VL: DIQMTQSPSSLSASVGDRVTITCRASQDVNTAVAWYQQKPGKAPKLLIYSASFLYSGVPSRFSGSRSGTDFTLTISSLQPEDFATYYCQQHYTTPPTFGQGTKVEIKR
# B5: Multi-step trastuzumab HCDR3 variant ASSGGSSSYSYYY (SEQ ID NO: 513) (Fab, V domains shown)
# VH: B1 VH with R98S, D99S, R102S, Y104S, F107Y
# VL: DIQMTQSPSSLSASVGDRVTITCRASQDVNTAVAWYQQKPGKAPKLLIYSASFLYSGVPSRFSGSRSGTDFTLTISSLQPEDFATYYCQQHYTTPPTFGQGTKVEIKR
# B6: Multi-step trastuzumab HCDR3 variant TRYGSFGYYALDS (SEQ ID NO: 530) (Fab, V domains shown)
# VH: B1 VH with A97T, D99Y, G101S, R102F, S103G, S106A, F107L, Y108D, Y109S
# VL: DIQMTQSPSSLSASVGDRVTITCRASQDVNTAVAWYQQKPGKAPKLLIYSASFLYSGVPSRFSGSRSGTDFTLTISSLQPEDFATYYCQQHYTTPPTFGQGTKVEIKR
# B7: Multi-step trastuzumab HCDR3 variant ARTGGSSYYAYDY (SEQ ID NO: 520) (Fab, V domains shown)
# VH: B1 VH with D99T, R102S, S106A, F107Y, Y108D
# VL: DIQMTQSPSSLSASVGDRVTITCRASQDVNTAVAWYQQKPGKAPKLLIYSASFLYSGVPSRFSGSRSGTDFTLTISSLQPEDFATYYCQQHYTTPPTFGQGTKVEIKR
# B8: Multi-step trastuzumab HCDR3 variant ARVGGRGYYAYDY (SEQ ID NO: 552) (Fab, V domains shown)
# VH: B1 VH with D99V, S103G, S106A, F107Y, Y108D
# VL: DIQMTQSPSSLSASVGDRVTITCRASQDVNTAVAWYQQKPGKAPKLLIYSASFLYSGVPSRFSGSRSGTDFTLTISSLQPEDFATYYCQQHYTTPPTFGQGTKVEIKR
# B9: Multi-step trastuzumab HCDR3 variant ARSGGYYHYGFVY (SEQ ID NO: 544) (Fab, V domains shown)
# VH: B1 VH with D99S, R102Y, S103Y, Y104H, S106G, Y108V
# VL: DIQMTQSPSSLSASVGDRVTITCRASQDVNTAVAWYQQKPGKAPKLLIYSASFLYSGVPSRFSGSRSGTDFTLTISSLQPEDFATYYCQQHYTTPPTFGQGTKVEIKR
# B10: Multi-step trastuzumab HCDR3 variant ARSGGSGYYSYNY (SEQ ID NO: 523) (Fab, V domains shown)
# VH: B1 VH with D99S, R102S, S103G, F107Y, Y108N
# VL: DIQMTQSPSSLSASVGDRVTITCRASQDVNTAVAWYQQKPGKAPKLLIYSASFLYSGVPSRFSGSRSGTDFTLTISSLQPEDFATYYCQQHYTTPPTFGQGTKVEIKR
# B11: Multi-step trastuzumab HCDR3 variant ARVGGYGYYSYDY (SEQ ID NO: 539) (Fab, V domains shown)
# VH: B1 VH with D99V, R102Y, S103G, F107Y, Y108D
# VL: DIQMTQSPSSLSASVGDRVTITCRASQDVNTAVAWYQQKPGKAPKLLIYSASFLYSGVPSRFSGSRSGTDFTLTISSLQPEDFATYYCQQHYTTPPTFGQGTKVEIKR
# B12: Multi-step trastuzumab HCDR3 variant ARSGGSSFYGMDY (SEQ ID NO: 519) (Fab, V domains shown)
# VH: B1 VH with D99S, R102S, Y104F, S106G, F107M, Y108D
# VL: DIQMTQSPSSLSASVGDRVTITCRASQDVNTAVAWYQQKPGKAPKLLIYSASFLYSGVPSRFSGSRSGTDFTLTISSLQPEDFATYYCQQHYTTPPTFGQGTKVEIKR
# B13: Multi-step trastuzumab HCDR3 variant ARSGGYYTYGFDY (SEQ ID NO: 548) (Fab, V domains shown)
# VH: B1 VH with D99S, R102Y, S103Y, Y104T, S106G, Y108D
# VL: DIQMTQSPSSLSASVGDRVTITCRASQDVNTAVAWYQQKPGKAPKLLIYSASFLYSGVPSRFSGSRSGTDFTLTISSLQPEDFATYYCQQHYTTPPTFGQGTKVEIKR
# B14: Multi-step trastuzumab HCDR3 variant ARSGGRYTYGFDY (SEQ ID NO: 551) (Fab, V domains shown)
# VH: B1 VH with D99S, S103Y, Y104T, S106G, Y108D
# VL: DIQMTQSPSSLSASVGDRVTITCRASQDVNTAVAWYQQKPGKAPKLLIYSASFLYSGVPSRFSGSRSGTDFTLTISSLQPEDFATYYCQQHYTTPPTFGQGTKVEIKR
# B15: Multi-step trastuzumab HCDR3 variant ARYGGSYFYYYSY (SEQ ID NO: 517) (Fab, V domains shown)
# VH: B1 VH with D99Y, R102S, S103Y, Y104F, S106Y, F107Y, Y108S
# VL: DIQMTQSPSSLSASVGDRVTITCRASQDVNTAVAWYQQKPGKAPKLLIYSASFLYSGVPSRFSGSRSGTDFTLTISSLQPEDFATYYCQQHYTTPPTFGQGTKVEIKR
# B16: Multi-step trastuzumab HCDR3 variant ARYSGDSYYYYDY (SEQ ID NO: 550) (Fab, V domains shown)
# VH: B1 VH with D99Y, G100S, R102D, S106Y, F107Y, Y108D
# VL: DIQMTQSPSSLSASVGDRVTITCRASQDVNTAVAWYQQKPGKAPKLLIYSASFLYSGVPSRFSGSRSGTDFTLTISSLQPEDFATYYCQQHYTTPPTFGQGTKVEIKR
# B17: Multi-step trastuzumab HCDR3 variant ARYGGSSYYYYDY (SEQ ID NO: 529) (Fab, V domains shown)
# VH: B1 VH with D99Y, R102S, S106Y, F107Y, Y108D
# VL: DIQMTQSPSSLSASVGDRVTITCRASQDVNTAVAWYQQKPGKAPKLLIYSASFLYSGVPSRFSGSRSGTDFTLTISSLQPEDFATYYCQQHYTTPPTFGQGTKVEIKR
# B18: Multi-step trastuzumab HCDR3 variant ARSGGGSYYYYDY (SEQ ID NO: 546) (Fab, V domains shown)
# VH: B1 VH with D99S, R102G, S106Y, F107Y, Y108D
# VL: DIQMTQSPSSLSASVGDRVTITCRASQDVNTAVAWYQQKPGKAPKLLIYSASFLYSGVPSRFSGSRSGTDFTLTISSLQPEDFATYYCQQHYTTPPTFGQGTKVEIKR
# B19: Multi-step trastuzumab HCDR3 variant ARYYGSSSYYFAY (SEQ ID NO: 75) (Fab, V domains shown)
# VH: B1 VH with D99Y, G100Y, R102S, Y104S, S106Y, Y108A
# VL: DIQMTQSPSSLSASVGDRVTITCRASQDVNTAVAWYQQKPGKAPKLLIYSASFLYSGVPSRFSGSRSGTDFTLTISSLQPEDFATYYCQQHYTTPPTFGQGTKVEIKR
# notes: also called AI Design 9
# B20: Multi-step trastuzumab HCDR3 variant ARSSGYYYYGFVY (SEQ ID NO: 540) (Fab, V domains shown)
# VH: B1 VH with D99S, G100S, R102Y, S103Y, S106G, Y108V
# VL: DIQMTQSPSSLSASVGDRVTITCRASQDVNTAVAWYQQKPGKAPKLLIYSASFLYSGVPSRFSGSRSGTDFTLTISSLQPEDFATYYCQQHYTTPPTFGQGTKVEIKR
# B21: Multi-step trastuzumab HCDR3 variant ARYGGGYYYYYDY (SEQ ID NO: 531) (Fab, V domains shown)
# VH: B1 VH with D99Y, R102G, S103Y, S106Y, F107Y, Y108D
# VL: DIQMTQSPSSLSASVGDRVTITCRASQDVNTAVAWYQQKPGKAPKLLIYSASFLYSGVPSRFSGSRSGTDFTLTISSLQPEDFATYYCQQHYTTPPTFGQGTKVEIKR
# B22: Multi-step trastuzumab HCDR3 variant ARYGGSSYYYFDY (SEQ ID NO: 528) (Fab, V domains shown)
# VH: B1 VH with D99Y, R102S, S106Y, Y108D
# VL: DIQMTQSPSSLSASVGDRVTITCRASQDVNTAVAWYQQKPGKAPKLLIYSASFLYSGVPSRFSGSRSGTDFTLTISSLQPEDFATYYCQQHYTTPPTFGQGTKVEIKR
# B23: Multi-step trastuzumab HCDR3 variant ARSSGSSYYGFDY (SEQ ID NO: 526) (Fab, V domains shown)
# VH: B1 VH with D99S, G100S, R102S, S106G, Y108D
# VL: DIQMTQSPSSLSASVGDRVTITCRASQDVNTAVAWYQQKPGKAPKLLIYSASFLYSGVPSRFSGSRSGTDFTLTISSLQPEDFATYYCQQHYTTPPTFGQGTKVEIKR
# B24: Multi-step trastuzumab HCDR3 variant ARYRGRGFYSFDY (SEQ ID NO: 532) (Fab, V domains shown)
# VH: B1 VH with D99Y, G100R, S103G, Y104F, Y108D
# VL: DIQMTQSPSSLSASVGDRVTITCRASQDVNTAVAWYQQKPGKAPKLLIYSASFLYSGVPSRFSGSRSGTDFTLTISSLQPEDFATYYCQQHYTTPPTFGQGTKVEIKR
# B25: Multi-step trastuzumab HCDR3 variant ARSRGSSSYMMDY (SEQ ID NO: 512) (Fab, V domains shown)
# VH: B1 VH with D99S, G100R, R102S, Y104S, S106M, F107M, Y108D
# VL: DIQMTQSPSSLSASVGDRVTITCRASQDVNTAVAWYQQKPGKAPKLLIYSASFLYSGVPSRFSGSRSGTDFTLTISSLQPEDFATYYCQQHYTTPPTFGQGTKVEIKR
# B26: Multi-step trastuzumab HCDR3 variant SRYSYSGGGSFDY (SEQ ID NO: 537) (Fab, V domains shown)
# VH: B1 VH with A97S, D99Y, G100S, G101Y, R102S, S103G, Y104G, Y105G, Y108D
# VL: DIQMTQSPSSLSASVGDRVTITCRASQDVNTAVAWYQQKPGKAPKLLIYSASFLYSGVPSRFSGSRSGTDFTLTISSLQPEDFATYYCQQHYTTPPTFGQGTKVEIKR
# B27: Multi-step trastuzumab HCDR3 variant ARYGGRGYYSFDY (SEQ ID NO: 533) (Fab, V domains shown)
# VH: B1 VH with D99Y, S103G, Y108D
# VL: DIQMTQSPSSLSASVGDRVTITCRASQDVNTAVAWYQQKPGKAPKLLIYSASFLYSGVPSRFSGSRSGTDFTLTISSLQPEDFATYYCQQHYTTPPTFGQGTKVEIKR
# B28: Multi-step trastuzumab HCDR3 variant ARSYGSGSYSFDY (SEQ ID NO: 514) (Fab, V domains shown)
# VH: B1 VH with D99S, G100Y, R102S, S103G, Y104S, Y108D
# VL: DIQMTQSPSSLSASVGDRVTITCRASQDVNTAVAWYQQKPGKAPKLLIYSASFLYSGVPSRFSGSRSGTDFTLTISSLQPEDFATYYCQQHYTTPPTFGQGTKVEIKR
# B29: Multi-step trastuzumab HCDR3 variant ARYSSSGGSAFDY (SEQ ID NO: 542) (Fab, V domains shown)
# VH: B1 VH with D99Y, G100S, G101S, R102S, S103G, Y104G, Y105S, S106A, Y108D
# VL: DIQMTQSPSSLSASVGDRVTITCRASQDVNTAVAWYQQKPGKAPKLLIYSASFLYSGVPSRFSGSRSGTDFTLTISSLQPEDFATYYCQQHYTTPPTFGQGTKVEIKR
# B30: Multi-step trastuzumab HCDR3 variant ARYGGDYYYYYDY (SEQ ID NO: 527) (Fab, V domains shown)
# VH: B1 VH with D99Y, R102D, S103Y, S106Y, F107Y, Y108D
# VL: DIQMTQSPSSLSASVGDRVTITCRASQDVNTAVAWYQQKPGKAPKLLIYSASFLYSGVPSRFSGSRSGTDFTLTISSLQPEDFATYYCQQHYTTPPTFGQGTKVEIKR
# B31: Multi-step trastuzumab HCDR3 variant ARYGGRSSYYFDY (SEQ ID NO: 545) (Fab, V domains shown)
# VH: B1 VH with D99Y, Y104S, S106Y, Y108D
# VL: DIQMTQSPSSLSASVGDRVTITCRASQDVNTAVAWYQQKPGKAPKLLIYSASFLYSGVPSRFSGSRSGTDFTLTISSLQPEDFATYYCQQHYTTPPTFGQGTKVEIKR
# B32: Multi-step trastuzumab HCDR3 variant ARYSYYGGGAFDY (SEQ ID NO: 543) (Fab, V domains shown)
# VH: B1 VH with D99Y, G100S, G101Y, R102Y, S103G, Y104G, Y105G, S106A, Y108D
# VL: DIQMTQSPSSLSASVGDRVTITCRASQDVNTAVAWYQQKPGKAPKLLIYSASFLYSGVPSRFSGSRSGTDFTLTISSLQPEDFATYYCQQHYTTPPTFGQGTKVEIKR
# B33: Multi-step trastuzumab HCDR3 variant ARYSYYGGGYFDY (SEQ ID NO: 515) (Fab, V domains shown)
# VH: B1 VH with D99Y, G100S, G101Y, R102Y, S103G, Y104G, Y105G, S106Y, Y108D
# VL: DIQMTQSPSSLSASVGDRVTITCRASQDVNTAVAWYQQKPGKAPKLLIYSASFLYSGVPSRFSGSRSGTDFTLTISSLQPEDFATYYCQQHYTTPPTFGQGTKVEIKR
# B34: Multi-step trastuzumab HCDR3 variant ARYGGSSNYYYDY (SEQ ID NO: 518) (Fab, V domains shown)
# VH: B1 VH with D99Y, R102S, Y104N, S106Y, F107Y, Y108D
# VL: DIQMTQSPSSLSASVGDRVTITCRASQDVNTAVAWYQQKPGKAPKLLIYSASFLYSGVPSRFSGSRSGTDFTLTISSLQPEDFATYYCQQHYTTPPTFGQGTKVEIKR
# B35: Multi-step trastuzumab HCDR3 variant ARYSGSSYYYYDY (SEQ ID NO: 536) (Fab, V domains shown)
# VH: B1 VH with D99Y, G100S, R102S, S106Y, F107Y, Y108D
# VL: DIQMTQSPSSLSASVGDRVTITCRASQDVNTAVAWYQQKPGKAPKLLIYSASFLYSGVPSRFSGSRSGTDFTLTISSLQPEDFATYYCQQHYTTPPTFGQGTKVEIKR
# B36: Multi-step trastuzumab HCDR3 variant ARSTGSGFYSYDY (SEQ ID NO: 547) (Fab, V domains shown)
# VH: B1 VH with D99S, G100T, R102S, S103G, Y104F, F107Y, Y108D
# VL: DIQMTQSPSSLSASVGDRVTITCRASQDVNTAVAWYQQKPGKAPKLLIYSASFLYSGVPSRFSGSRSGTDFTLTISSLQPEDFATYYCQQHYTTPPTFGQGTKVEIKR
# B37: Multi-step trastuzumab HCDR3 variant ARSGGSSYYYYDY (SEQ ID NO: 508) (Fab, V domains shown)
# VH: B1 VH with D99S, R102S, S106Y, F107Y, Y108D
# VL: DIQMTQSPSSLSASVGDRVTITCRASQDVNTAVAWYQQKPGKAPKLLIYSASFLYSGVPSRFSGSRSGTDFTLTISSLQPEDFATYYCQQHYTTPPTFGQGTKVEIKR
# B38: Multi-step trastuzumab HCDR3 variant ARDRGVSGYYLYY (SEQ ID NO: 516) (Fab, V domains shown)
# VH: B1 VH with G100R, R102V, Y104G, S106Y, F107L
# VL: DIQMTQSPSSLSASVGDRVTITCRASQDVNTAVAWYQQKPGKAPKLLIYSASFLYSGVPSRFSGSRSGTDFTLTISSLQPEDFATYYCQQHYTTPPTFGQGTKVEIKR
# B39: Multi-step trastuzumab HCDR3 variant TRYSYYGYHAMDY (SEQ ID NO: 549) (Fab, V domains shown)
# VH: B1 VH with A97T, D99Y, G100S, G101Y, R102Y, S103G, Y105H, S106A, F107M, Y108D
# VL: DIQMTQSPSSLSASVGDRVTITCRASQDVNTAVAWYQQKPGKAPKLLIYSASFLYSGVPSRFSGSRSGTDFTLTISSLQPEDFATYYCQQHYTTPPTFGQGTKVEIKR
# Molecular target: human epidermal growth factor receptor 2 (HER2) extracellular domain (human, UniProt P04626 23-629)
# Assay: SPR, Fab format
Binder,Kd [nM],log(KD (M)) [log M]
B1,104,-6.98
B2,146,-6.83
B3,1070,-5.97
B4,1050,-5.98
B5,1720,-5.76
B6,57.6,-7.24
B7,901,-6.05
B8,2290,-5.64
B9,228,-6.64
B10,603,-6.22
B11,169,-6.77
B12,680,-6.17
B13,338,-6.47
B14,1410,-5.85
B15,7.31,-8.14
B16,366,-6.44
B17,72.3,-7.14
B18,308,-6.51
B19,60.6,-7.22
B20,157,-6.8

Binder,Kd [nM],log(KD (M)) [log M]
B21,57.6,-7.24
B22,97.2,-7.01
B23,668,-6.18
B24,22,-7.66
B25,566,-6.25
B26,362,-6.44
B27,26.2,-7.58
B28,495,-6.31
B29,1990,-5.7
B30,57,-7.24
B31,257,-6.59
B32,191,-6.72
B33,478,-6.32
B34,441,-6.36
B35,423,-6.37
B36,330,-6.48
B37,1070,-5.97
B38,567,-6.25
B39,354,-6.45
